Results reported in the Human Domainome abundance scans (Beltran et al. 2025).

B1: Bromodomain adjacent to zinc finger domain protein 2B, residues 1927 to 1982; numbered along this chain, Q9UIF8 (parent)
chain: KSIMKVYCQICRKGDNEELLLLCDGCDKGCHTYCHRPKITTIPDGDWFCPACIAKA

Variants of: B1
Experiment: abundance fitness (aPCA) (normalised: wild type 0, dead -1); higher = more abundant; growth selection in yeast, the domain comes from the species named
Settings: Homo sapiens

Abundance fitness, by site and new letter:
R36: C 0.008
T40: H -0.128; P 0.031; K 0.072; G -0.106; D -0.095; E -0.026; S -0.131; V -0.056; W -0.082; Y -0.11; R -0.043; M -0.024; I -0.123; L -0.049; N -0.232; F -0.015; A -0.164
H31: D -0.386; Y -0.573; G -0.471; M -0.71; C -0.483; K -0.5; I -0.817; N -0.553; P -0.556; S -0.639; R -0.601; V -0.624; E -0.753; W -0.856; Q -0.622; F -0.954; L -0.926; T -0.446; A -0.683
K28: P -0.755; G -0.02; Q 0.094; H 0.04; A -0.085; M -0.002; F 0.094; I -0.329; D -0.055; Y -0.035; L -0.025; C -0.158; S -0.089; N -0.047; E 0.034; W 0.008; T -0.026
C23: Y -0.42
C26: H -1.04; Q -0.711; L -0.819; D -0.676; V -0.612; W -0.931; K -0.744; Y -0.706; A -0.598; P -0.75; T -0.678; F -0.969; S -0.616; G -0.572; E -0.676; N -0.753; R -0.674; I -0.673
C34: Y -0.659; F -0.766; K -0.561; Q -0.731; M -0.672; G -0.495; N -0.818; V -0.771; D -0.63; T -0.694; I -0.961; H -0.216; L -0.763; W -0.895; P -0.675; A -0.688; S -0.584
K38: T -0.016; Q -0.219; R -0.122; Y -0.148; E -0.186; W -0.216; N -0.139; C -0.128; F -0.147; P -0.122; M -0.09; V -0.104; L 0.015; S -0.059; I -0.071; H -0.153
L21: N -0.206; K -0.005; T -0.042; M -0.076; E -0.336; I -0.072; P -0.524; S -0.2; F -0.3; H -0.37; Y -0.374; G -0.224; W -0.248
D24: F -0.273; S 0.053; P -0.05; N 0.113; Y -0.669; E 0.219; R -0.061; M 0.026; C 0.073; A 0.048; H -0.063; L -0.034; Q 0.08; T 0.06; K -0.005; G 0.155
D27: E 0.109; S -0.099; T -0.08; G 0.023; V -0.222; N -0.096; P -0.173; Y -0.085; R -0.127; W -0.069; A -0.112; M -0.128; C -0.187; K -0.001
T32: R -0.078; N -0.133; P -0.271; S 0.052; C -0.333; L 0.026; Q -0.131; M -0.048; W -0.141; G -0.118; A -0.065; H -0.111; K -0.156; I 0.004; F -0.235; V -0.053; E -0.27; Y -0.019
